Test results from publication PMC8093152, “Biosynthesis of the Tricyclic Aromatic Type II Polyketide Rishirilide: New Potential Third Ring Oxygenation after Three Cyclization Steps” (Molecular Biotechnology, 2021).

B1: RslO4 monooxygenase, C-terminal His-tag recombinant protein (enzyme, Streptomyces bottropensis Gö C4/4)
chain: MAVVFVNKLTLIGDAEEFESRYEAVGAFMETQPGLVRYSLVRSTKDDSVYFNIAEWDDEDTFRKALAEPEFRRRLDALTGLIKGEPHLSLPVRQGRAAQV
notes: RslO4, monooxygenase of the rishirilide (Rsl) gene cluster of Streptomyces bottropensis Gö C4/4; gene amplified from cosmid 4 and cloned between NdeI and XhoI of pET21a(+); rslO4 gene printed as 300 bps; predicted mass of the tagged protein 12.17 kDa; also called monooxygenase RslO4; cofactor-independent monooxygenase RslO4; source: E. coli BL21 (DE3) Star, pET21a(+), purified (Ni-NTA HisTrap FF, …)
B2: RslO1 monooxygenase, C-terminal His-tag recombinant protein (enzyme, Streptomyces bottropensis Gö C4/4)
chain: MKFGINLFPTVGPAEKSAGQHFEESLRLAELADELGFHHVKTVEHYFHEYGGYSPDPVTFLAAAAARTRRVRLVTGAVLPVFTHPLKLAGKLAMLDNISQGRLDVGFGRAFLPDEFTAFEISMDESRARFDEGVEAVRRLWAEEDVVWEGTFHRFGPVTMLPRTWQRPHPRILVATAKTPASAEAAARAGHGVMLVPSINPREQVQKTLSLYRDAASAAGFKPTEEDIHMSYNCYLAEDGQEARQKGGQASERANRALASAVSAWRETRSADYPGYEKIVEKAGRGDFDRAVAERKALVGTPDEVRAAIDDIRGWFGDFTISLQVISGAMPFEESARTMRLFAEHLLPHYAAND
notes: RslO1, FMN-dependent luciferase-like monooxygenase of the rishirilide (Rsl) gene cluster of Streptomyces bottropensis Gö C4/4; gene amplified from cosmid 4 and cloned between NdeI and XhoI of pET21a(+); predicted mass of the tagged protein 40.04 kDa; also called monooxygenase RslO1; FMN-dependent luciferase-like monooxygenase RslO1; source: E. coli BL21 (DE3) Star, pET21a(+), purified (Ni-NTA …)

Experiments:
[1] = target: the molecule itself; test: crystal structure; apo RslO4, sitting drop vapor diffusion at 20 °C, 6% ethanol, 0.1 M ammonium acetate pH 5.5, 1.5 M phosphate pH 7.0; space group P3(2)21, two monomers in the asymmetric unit; 1.8 Å
[2] = target: the molecule itself; test: crystal structure; apo RslO1, sitting drop vapor diffusion at 20 °C, 0.1 M HEPES pH 7.5, 36% polyethylene glycol 600 (seeded); space group P2(1)2(1)2(1); 1.60 Å

Row | Protein | stoichiometry N [1] | stoichiometry N [2]
1 | B1 | 2 | –
2 | B2 | – | 2
